Measurements: US20080026992

What was measured:
[1] = system: mutant p27 Y88F, phosphorylated on Tyr-89 by recombinant Abl kinase
[2] = system: p27Kip1, recombinant, unphosphorylated
[3] = system: p27Kip1, recombinant, tyrosine-phosphorylated in vitro by Abl kinase (Tyr-88 phosphorylated p27)

Sequence of mutant p27 Y88F, phosphorylated on Tyr-89 by recombinant Abl kinase (chain, as listed by the source Y88F): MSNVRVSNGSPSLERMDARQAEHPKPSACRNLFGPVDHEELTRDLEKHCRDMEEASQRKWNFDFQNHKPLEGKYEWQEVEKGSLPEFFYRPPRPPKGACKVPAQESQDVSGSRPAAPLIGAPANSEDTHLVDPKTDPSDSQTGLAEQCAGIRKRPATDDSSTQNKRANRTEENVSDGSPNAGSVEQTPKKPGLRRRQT

Substance: CDK2/cyclin A complex, recombinant, purified from Sf9 insect cells
- phosphorylation of Thr-187 of p27 in CDK2 kinase complexes (Western blot with a phospho-threonine 187 specific antibody) [1]: a mutant phosphorylated on Tyr-89 is not a good substrate for CDK2-dependent phosphorylation (FIG. 5b)
- phosphorylation of p27 by CDK2 within p27/CDK2/cyclin A complexes (32P incorporation) [2]: As expected, p27 was poorly phosphorylated due to the absence of free kinase
- phosphorylation of Thr-187 of p27 in CDK2 kinase complexes (Western blot with a phospho-threonine 187 specific antibody) [3]: Phosphorylation of Thr-187 was indeed strongly enhanced if Tyr-88 phosphorylated p27 was incubated in CDK2 kinase complexes (FIG. 5b)
- phosphorylation of p27 by CDK2 within p27/CDK2/cyclin A complexes (32P incorporation) [3]: the tyrosine phosphorylated protein was a good substrate for CDK2 phosphorylation (FIG. 5a)
